Sequences and labels used below:
T1: GST-Rar1 (wild type) (Arabidopsis thaliana, UniProt Q9SE33 1-226)
T1 construct: Rar1, Arabidopsis thaliana, wild type; Construct details are in the Supplemental Information; also called Wild-type GST-Rar1; GST-tagged Rar1
T1 sequence (looked up): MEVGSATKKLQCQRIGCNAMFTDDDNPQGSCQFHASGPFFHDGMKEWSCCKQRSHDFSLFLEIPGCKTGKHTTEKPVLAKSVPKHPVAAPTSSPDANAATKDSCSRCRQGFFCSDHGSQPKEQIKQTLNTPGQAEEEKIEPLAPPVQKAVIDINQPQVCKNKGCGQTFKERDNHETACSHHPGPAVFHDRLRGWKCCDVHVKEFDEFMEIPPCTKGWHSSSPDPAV

B1: CHORDII domain of cress (Arabidopsis thaliana) Rar1 (domain or fragment)
chain: AVIDINQPQVCKNKGCGQTFKERDNHETACSHHPGPAVFHDRLRGWKCCDVHVKEFDEFMEIPPCTKGWHSSS
notes: Rar1, Arabidopsis thaliana, CHORDII domain; also called Rar1-CHORDII; isolated CHORDII
B2: CS domain of cress (Arabidopsis thaliana) Sgt1a (domain or fragment)
chain: AKYRHEYYQKPEEVVVTVFAKGIPKQNVNIDFGEQILSVVIEVPGEDAYYLQPRLFGKIIPDKCKYEVLSTKIEICLAKADIITWASLEHGK
notes: Sgt1a, Arabidopsis thaliana, CS domain; construct as described previously (Boter et al., 2007; Zhang et al., 2008); also called Sgt1-CS; Sgt-CS
B3: Rar1 (wild type, not GST-tagged) (natural protein, Arabidopsis thaliana, UniProt Q9SE33 1-226, looked up)
chain: T1 sequence (looked up)

The target of test [1] is B2. Briefly: ITC; Rar1-CHORDII with Sgt1-CS (Figure S2C); conditions not shown. The note with it: both partners purified. (Isothermal titration calorimetry measures the heat released or taken up as one component is titrated into another.)
In a further test the target is T1, GST-Rar1 (wild type). The test can be described thus: pull-down; GST-Rar1 as bait, Hsp90, untagged Rar1 and Sgt1-CS present. The note with it: both partners purified.
Another test deals with Hsp90 ( (Arabidopsis, H. vulgare or …, UniProt Q7XJ80 1-700)). The test can be described thus: cell-based or functional assay.
Sequence of Hsp90 ( (Q7XJ80 entry or part of it): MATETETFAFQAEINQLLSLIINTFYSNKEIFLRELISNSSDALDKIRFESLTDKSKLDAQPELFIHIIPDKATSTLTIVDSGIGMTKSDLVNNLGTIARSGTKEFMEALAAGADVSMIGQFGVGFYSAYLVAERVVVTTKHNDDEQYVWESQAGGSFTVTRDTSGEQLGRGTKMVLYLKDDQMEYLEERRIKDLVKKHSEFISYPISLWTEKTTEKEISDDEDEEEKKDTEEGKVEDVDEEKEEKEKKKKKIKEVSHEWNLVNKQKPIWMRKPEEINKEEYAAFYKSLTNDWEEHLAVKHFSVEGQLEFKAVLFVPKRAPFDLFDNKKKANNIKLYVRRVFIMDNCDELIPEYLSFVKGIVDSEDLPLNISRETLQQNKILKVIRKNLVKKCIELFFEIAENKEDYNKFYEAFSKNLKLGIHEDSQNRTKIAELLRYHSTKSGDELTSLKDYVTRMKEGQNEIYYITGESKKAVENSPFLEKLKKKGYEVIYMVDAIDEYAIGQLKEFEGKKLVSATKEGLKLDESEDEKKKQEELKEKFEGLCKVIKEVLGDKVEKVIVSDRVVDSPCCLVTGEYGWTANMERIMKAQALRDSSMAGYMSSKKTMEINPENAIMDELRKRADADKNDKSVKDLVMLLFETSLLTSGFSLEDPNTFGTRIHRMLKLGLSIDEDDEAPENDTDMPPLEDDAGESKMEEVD

As a reminder, the Kd is a measure of binding affinity in units of concentration. A low value points to higher affinity. As to B1, in test [1], the Kd stood at 3.09 ± 0.15 µM. For B2, the binding result in the test with GST-Rar1 (wild type) is given as “binds”. With B3, in the test with Hsp90, the “ATP turnover of Ta-Hsp90 with increasing concentrations of Rar1 (up to 20-fold excess)” value was 2 fold.

(Values after PMC2935968, “Structural Basis for Assembly of Hsp90-Sgt1-CHORD Protein Complexes: Implications for Chaperoning of NLR Innate Immunity Receptors” (Molecular Cell, 2010).)
